Assay results taken from patent publication US20050170334A1.

Target: M2 peptide (extracellular 23-amino-acid M2 peptide) (influenza A virus)
Assay: ELISA, peptide coated, antibody 10 µg/ml

Substance: mouse anti-M2 antibody 14C2
- ELISA (OD450): 1.97 OD450
